Target: T1, murine IL6 (murine, UniProt P08505 25-211)
T1 construct: also called mIL-6; mIL6
T1 sequence (looked up): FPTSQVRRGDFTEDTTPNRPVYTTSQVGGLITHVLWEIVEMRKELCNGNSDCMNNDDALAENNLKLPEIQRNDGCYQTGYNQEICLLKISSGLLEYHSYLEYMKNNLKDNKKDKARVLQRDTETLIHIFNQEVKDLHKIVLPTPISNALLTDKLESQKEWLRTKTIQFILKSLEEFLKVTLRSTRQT
Assay: not described (statement in Example 1)

binding result: no binding
B1: A2-XT6 (multi-target binding molecule with the TNFR extracellular domain (ECD) at the N-terminal end and the anti-hyperIL6 scFv at the carboxy-terminal end) (other)
chain: LPAQVAFTPYAPEPGSTCRLREYYDQTAQMCCSKCSPGQHAKVFCTKTSDTVCDSCEDSTYTQLWNWVPECLSCGSRCSSDQVETQACTREQNRICTCRPGWYCALSKQEGCRLCAPLRKCRPGFGVARPGTETSDVVCKPCAPGTFSNTTSSTDICRPHQICNVVAIPGNASMDAVCTSTSPTRSMAPGAVHLPQPVSTRSQHTQPTPEPSTAPSTSFLLPMGPSPPAEGSTGDTGEPKSSDKTHTCPPCPAPEAAGAPSVFLFPPKPKDTLMISRTPEVTCVVVDVSHEDPEVKFNWYVDGVEVHNAKTKPREEQYNSTYRVVSVLTVLHQDWLNGKAYACAVSNKALPAPIEKTISKAKGQPREPQVYTLPPSRDELTKNQVSLTCLVKGFYPSDIAVEWESNGQPENNYKTTPPVLDSDGSFFLYSKLTVDKSRWQQGNVFSCSVMHEALHNHYTQKSLSLSPGQRHNNSSLNTRTQKARHSPNSEVQLLESGGGLVQPGGSLRLSCAASGFTFSFYQMHWVRQAPGKGLEWVSGIYPSGGYTKYADSVKGRFTISRDNSKNTLYLQMNSLRAEDTAVYYCARDLGYGSSWYYFDYWGQGTLVTVSSGGGGSGGGGSGGGGSQSALTQPASVSGSPGQSITISCSGTDSDVGGYNHVSWYQQHPGKAPKLIIYDVDHRPSGISNRFSGSKSGNTASLTISGLQAEDEADYYCSSYRSGSTYVFGTGTKVTVL
notes: also called Zeu080a; TRU(XT6)-1002

Source: patent US20130052195A1 (EMERGENT PRODUCT DEVELOPMENT SEATTLE, published 2013)
